In patent US20110123542A1:

Target: T1, CCR6 receptor on human cancer cell lines (PC3, HL60, HT-29, NB4) (human) (UniProt P51684)
T1 sequence (looked up): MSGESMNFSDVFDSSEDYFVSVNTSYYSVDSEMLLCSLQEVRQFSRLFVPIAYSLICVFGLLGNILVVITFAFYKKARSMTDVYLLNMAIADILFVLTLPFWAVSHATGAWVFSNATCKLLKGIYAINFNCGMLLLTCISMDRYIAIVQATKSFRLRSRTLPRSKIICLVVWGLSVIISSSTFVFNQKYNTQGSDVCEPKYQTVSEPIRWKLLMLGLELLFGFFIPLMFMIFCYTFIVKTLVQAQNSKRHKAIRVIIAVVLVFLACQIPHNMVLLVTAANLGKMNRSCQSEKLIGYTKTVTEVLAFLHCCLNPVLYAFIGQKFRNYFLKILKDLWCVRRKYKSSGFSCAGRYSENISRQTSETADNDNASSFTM
Test: cell-based or functional assay

- BrdU incorporation of PC3 cells, CCL20 5 and 50 ng/ml: 1.76 fold
- adhesion of HL60 cells to collagen I, CCL20 250 ng/ml: 1.6 fold
- adhesion of HL60 cells to fibronectin, CCL20 500 ng/ml: 2 fold
- adhesion of PC3 cells to collagen I, CCL20 50 ng/ml: 2.2 fold
- adhesion of PC3 cells to collagen I, CCL20 500 ng/ml: 2.09 fold
- adhesion of PC3 cells to fibronectin, CCL20 500 ng/ml: 1.45 fold
Substance: CCL20 (PeproTech EC, London, UK) (from UniProt P78556 27-96) (ligand)
